According to paper PMC9482650, “Quantitative fragmentomics allow affinity mapping of interactomes” (Nature Communications, 2022):

T1: ARHGEF11, O15085
T1 sequence (O15085 42-136, limits assumed, looked up): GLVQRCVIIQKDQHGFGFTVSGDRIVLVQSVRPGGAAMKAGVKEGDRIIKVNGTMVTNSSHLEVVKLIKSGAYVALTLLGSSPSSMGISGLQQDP

T2: PDZD2_2, O15018
T2 sequence (O15018 329-429, limits assumed, looked up): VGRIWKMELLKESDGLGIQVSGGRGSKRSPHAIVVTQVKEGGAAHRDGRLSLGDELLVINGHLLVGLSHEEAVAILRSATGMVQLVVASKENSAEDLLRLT

T3: APBA3_1, O96018
T3 sequence (O96018 389-490, limits assumed, looked up): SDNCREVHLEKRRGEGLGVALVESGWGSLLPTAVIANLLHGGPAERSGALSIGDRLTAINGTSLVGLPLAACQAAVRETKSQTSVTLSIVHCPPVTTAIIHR

T4: GRIP1_4, Q9Y3R0
T4 sequence (Q9Y3R0 467-571, limits assumed, looked up): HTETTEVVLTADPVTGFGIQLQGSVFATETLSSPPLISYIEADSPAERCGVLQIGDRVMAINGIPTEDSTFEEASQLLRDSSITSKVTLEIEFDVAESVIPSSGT

T5: NHERF3_4, Q5T2W1
T5 sequence (Q5T2W1 373-468, limits assumed, looked up): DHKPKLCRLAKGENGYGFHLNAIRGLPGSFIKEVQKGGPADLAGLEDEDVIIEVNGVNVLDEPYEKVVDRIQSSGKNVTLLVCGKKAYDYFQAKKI

T6: TIAM2, Q8IVF5
T6 sequence (Q8IVF5 885-986, limits assumed, looked up): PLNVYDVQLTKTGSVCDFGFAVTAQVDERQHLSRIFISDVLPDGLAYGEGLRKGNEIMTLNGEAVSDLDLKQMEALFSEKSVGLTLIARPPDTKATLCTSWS

T7: LIN7C, Q9NUP9
T7 sequence (Q9NUP9 88-185, limits assumed, looked up): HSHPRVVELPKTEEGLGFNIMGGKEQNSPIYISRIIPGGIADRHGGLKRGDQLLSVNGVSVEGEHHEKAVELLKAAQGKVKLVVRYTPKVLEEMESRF

T8: SNTB1, Q13884
T8 sequence (Q13884 107-205, limits assumed, looked up): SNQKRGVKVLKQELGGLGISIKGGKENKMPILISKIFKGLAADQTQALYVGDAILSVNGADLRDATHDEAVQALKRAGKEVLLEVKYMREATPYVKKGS

T9: PDZRN3_1, Q9UPQ7
T9 sequence (Q9UPQ7 244-349, limits assumed, looked up): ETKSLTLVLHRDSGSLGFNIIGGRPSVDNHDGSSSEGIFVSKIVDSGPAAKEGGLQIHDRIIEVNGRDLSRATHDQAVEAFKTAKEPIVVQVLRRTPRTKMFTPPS

T10: SNTG2, Q9NY99
T10 sequence (Q9NY99 68-166, limits assumed, looked up): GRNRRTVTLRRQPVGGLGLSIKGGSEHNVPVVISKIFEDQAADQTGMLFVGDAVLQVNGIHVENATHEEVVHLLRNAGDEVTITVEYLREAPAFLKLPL

T11: LNX2_3, Q8N448
T11 sequence (Q8N448 463-564, limits assumed, looked up): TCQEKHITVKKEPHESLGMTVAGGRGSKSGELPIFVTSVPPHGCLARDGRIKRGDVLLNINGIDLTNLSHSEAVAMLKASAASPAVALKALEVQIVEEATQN

T12: HTRA4, P83105
T12 sequence (P83105 378-476, limits assumed, looked up): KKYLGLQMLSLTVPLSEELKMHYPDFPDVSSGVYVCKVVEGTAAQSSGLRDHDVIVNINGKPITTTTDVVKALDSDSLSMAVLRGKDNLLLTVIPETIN

B1: SIPA1, Q96FS4 (peptide)
chain: QLGSPTADLA
B2: WWTR1, Q9GZV5 (peptide)
chain: NKSEPFLTWL

These binders were tested against IL16_4, Q14005 (assay: holdup assay). Settings: plain residues with an end cap or a label only (N-terminal biotin on a linker: ado-ado).
Chain of IL16_4, Q14005 (Q14005 1229-1329): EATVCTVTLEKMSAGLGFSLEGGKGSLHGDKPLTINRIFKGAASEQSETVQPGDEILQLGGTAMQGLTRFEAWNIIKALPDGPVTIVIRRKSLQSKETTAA
Set-up: key: below the threshold = too weak to quantify, mostly under pKd 3.1 to 4

Binder	pKd
B1	below the threshold
B2	below the threshold

What follows are binders tested against T1, ARHGEF11, O15085 (assay: holdup assay). Settings: plain residues with an end cap or a label only (N-terminal biotin on a linker: ado-ado).
Set-up: key: below the threshold = too weak to quantify, mostly under pKd 3.1 to 4

Binder	pKd
B1	below the threshold
B2	5.33

What follows are binders tested against LNX1_2, Q8TBB1 (assay: holdup assay). Settings: plain residues with an end cap or a label only (N-terminal biotin on a linker: ado-ado).
Chain of LNX1_2, Q8TBB1 (Q8TBB1 371-470): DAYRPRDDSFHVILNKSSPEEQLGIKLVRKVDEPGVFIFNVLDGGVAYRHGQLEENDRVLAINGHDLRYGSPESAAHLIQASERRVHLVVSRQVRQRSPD
Set-up: key: below the threshold = too weak to quantify, mostly under pKd 3.1 to 4

Binder	pKd
B1	below the threshold
B2	below the threshold

The binders below were run against T2, PDZD2_2, O15018 (assay: holdup assay). Settings: plain residues with an end cap or a label only (N-terminal biotin on a linker: ado-ado).
Set-up: key: below the threshold = too weak to quantify, mostly under pKd 3.1 to 4

Binder	pKd
B1	below the threshold
B2	5.89

These binders were tested against DLG2_2, Q15700 (assay: holdup assay). Settings: plain residues with an end cap or a label only (N-terminal biotin on a linker: ado-ado).
Chain of DLG2_2, Q15700 (Q15700 189-283): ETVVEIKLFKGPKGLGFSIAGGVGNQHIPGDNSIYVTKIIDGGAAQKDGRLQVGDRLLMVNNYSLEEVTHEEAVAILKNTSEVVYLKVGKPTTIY
Set-up: key: below the threshold = too weak to quantify, mostly under pKd 3.1 to 4

Binder	pKd
B1	below the threshold
B2	below the threshold

Each binder was assayed against SCRIB_2, Q14160 (assay: holdup assay). Settings: plain residues with an end cap or a label only (N-terminal biotin on a linker: ado-ado).
Chain of SCRIB_2, Q14160 (Q14160 857-960): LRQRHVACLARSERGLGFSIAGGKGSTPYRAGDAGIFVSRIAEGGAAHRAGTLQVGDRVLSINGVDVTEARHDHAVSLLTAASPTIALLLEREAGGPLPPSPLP
Set-up: key: below the threshold = too weak to quantify, mostly under pKd 3.1 to 4

Binder	pKd
B1	below the threshold
B2	below the threshold

What follows are binders tested against FRMPD2_2, Q68DX3 (assay: holdup assay). Settings: plain residues with an end cap or a label only (N-terminal biotin on a linker: ado-ado).
Chain of FRMPD2_2, Q68DX3 (Q68DX3 944-1038): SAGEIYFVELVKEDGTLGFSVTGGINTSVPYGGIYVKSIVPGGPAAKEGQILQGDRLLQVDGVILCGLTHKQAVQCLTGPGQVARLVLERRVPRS
Set-up: key: below the threshold = too weak to quantify, mostly under pKd 3.1 to 4

Binder	pKd
B1	below the threshold
B2	4.29

The binders below were run against MAGI2_4, Q86UL8 (assay: holdup assay). Settings: plain residues with an end cap or a label only (N-terminal biotin on a linker: ado-ado).
Chain of MAGI2_4, Q86UL8 (Q86UL8 772-865): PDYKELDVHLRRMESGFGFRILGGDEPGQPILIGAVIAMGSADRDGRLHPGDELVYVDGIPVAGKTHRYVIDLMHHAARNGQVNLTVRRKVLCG
Set-up: key: below the threshold = too weak to quantify, mostly under pKd 3.1 to 4

Binder	pKd
B1	below the threshold
B2	3.85

The binders below were run against T3, APBA3_1, O96018 (assay: holdup assay). Settings: plain residues with an end cap or a label only (N-terminal biotin on a linker: ado-ado).
Set-up: key: below the threshold = too weak to quantify, mostly under pKd 3.1 to 4

Binder	pKd
B1	below the threshold
B2	3.5

The binders below were run against LAP2, Q96RT1 (assay: holdup assay). Settings: plain residues with an end cap or a label only (N-terminal biotin on a linker: ado-ado).
Chain of LAP2, Q96RT1 (Q96RT1 other isoform, or with tags, fused parts or gaps): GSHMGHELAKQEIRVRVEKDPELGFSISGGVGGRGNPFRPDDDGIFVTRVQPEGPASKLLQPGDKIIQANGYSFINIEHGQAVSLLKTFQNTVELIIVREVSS
Set-up: key: below the threshold = too weak to quantify, mostly under pKd 3.1 to 4

Binder	pKd
B1	below the threshold
B2	4.6

What follows are binders tested against T4, GRIP1_4, Q9Y3R0 (assay: holdup assay). Settings: plain residues with an end cap or a label only (N-terminal biotin on a linker: ado-ado).
Set-up: key: below the threshold = too weak to quantify, mostly under pKd 3.1 to 4

Binder	pKd
B1	below the threshold
B2	below the threshold

What follows are binders tested against T5, NHERF3_4, Q5T2W1 (assay: holdup assay). Settings: plain residues with an end cap or a label only (N-terminal biotin on a linker: ado-ado).
Set-up: key: below the threshold = too weak to quantify, mostly under pKd 3.1 to 4

Binder	pKd
B1	below the threshold
B2	4.15

These binders were tested against SNX27, Q96L92 (assay: holdup assay). Settings: plain residues with an end cap or a label only (N-terminal biotin on a linker: ado-ado).
Set-up: key: below the threshold = too weak to quantify, mostly under pKd 3.1 to 4

Binder	pKd
B1	below the threshold
B2	5.02

Each binder was assayed against Inadl_3, Q8NI35 (assay: holdup assay). Settings: plain residues with an end cap or a label only (N-terminal biotin on a linker: ado-ado).
Chain of Inadl_3, Q8NI35 (Q8NI35 359-469): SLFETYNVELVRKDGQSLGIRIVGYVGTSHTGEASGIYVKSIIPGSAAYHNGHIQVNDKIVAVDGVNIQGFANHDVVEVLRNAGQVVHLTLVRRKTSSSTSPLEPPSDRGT
Set-up: key: below the threshold = too weak to quantify, mostly under pKd 3.1 to 4

Binder	pKd
B1	below the threshold
B2	4.35

Each binder was assayed against AHNAK1, Q09666 (assay: holdup assay). Settings: plain residues with an end cap or a label only (N-terminal biotin on a linker: ado-ado).
Chain of AHNAK1, Q09666 (Q09666 4-100): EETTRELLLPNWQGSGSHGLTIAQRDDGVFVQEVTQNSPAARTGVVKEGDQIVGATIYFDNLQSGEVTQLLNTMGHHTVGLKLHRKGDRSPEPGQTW
Set-up: key: below the threshold = too weak to quantify, mostly under pKd 3.1 to 4

Binder	pKd
B1	below the threshold
B2	below the threshold

Each binder was assayed against LNX1_3, Q8TBB1 (assay: holdup assay). Settings: plain residues with an end cap or a label only (N-terminal biotin on a linker: ado-ado).
Chain of LNX1_3, Q8TBB1 (Q8TBB1 500-596): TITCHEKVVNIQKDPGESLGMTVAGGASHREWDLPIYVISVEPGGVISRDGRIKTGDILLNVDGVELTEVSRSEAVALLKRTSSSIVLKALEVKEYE
Set-up: key: below the threshold = too weak to quantify, mostly under pKd 3.1 to 4

Binder	pKd
B1	below the threshold
B2	below the threshold

The binders below were run against T6, TIAM2, Q8IVF5 (assay: holdup assay). Settings: plain residues with an end cap or a label only (N-terminal biotin on a linker: ado-ado).
Set-up: key: below the threshold = too weak to quantify, mostly under pKd 3.1 to 4

Binder	pKd
B1	4.24
B2	3.65

What follows are binders tested against TJP1_3, Q07157 (assay: holdup assay). Settings: plain residues with an end cap or a label only (N-terminal biotin on a linker: ado-ado).
Chain of TJP1_3, Q07157 (Q07157 416-512): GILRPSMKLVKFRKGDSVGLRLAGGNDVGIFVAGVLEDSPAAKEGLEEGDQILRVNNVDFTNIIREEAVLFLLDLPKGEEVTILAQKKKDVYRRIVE
Set-up: key: below the threshold = too weak to quantify, mostly under pKd 3.1 to 4

Binder	pKd
B1	below the threshold
B2	below the threshold

What follows are binders tested against T7, LIN7C, Q9NUP9 (assay: holdup assay). Settings: plain residues with an end cap or a label only (N-terminal biotin on a linker: ado-ado).
Set-up: key: below the threshold = too weak to quantify, mostly under pKd 3.1 to 4

Binder	pKd
B1	3.69
B2	3.58

The binders below were run against Inadl_6, Q8NI35 (assay: holdup assay). Settings: plain residues with an end cap or a label only (N-terminal biotin on a linker: ado-ado).
Chain of Inadl_6, Q8NI35 (Q8NI35 1058-1167): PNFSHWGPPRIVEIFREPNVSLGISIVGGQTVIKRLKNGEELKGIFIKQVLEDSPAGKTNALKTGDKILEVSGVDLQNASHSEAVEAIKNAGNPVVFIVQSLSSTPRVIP
Set-up: key: below the threshold = too weak to quantify, mostly under pKd 3.1 to 4

Binder	pKd
B1	below the threshold
B2	5.68

The binders below were run against T8, SNTB1, Q13884 (assay: holdup assay). Settings: plain residues with an end cap or a label only (N-terminal biotin on a linker: ado-ado).
Set-up: key: below the threshold = too weak to quantify, mostly under pKd 3.1 to 4

Binder	pKd
B1	below the threshold
B2	3.79

Each binder was assayed against T9, PDZRN3_1, Q9UPQ7 (assay: holdup assay). Settings: plain residues with an end cap or a label only (N-terminal biotin on a linker: ado-ado).
Set-up: key: below the threshold = too weak to quantify, mostly under pKd 3.1 to 4

Binder	pKd
B1	below the threshold
B2	3.76

Each binder was assayed against T10, SNTG2, Q9NY99 (assay: holdup assay). Settings: plain residues with an end cap or a label only (N-terminal biotin on a linker: ado-ado).
Set-up: key: below the threshold = too weak to quantify, mostly under pKd 3.1 to 4

Binder	pKd
B1	below the threshold
B2	below the threshold

These binders were tested against DLG1_3, Q12959 (assay: holdup assay). Settings: plain residues with an end cap or a label only (N-terminal biotin on a linker: ado-ado).
Chain of DLG1_3, Q12959 (Q12959 457-571): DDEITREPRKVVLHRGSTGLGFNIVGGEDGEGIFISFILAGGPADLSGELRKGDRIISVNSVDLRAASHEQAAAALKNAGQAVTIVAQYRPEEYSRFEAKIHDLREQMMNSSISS
Set-up: key: below the threshold = too weak to quantify, mostly under pKd 3.1 to 4

Binder	pKd
B1	below the threshold
B2	below the threshold

Each binder was assayed against T11, LNX2_3, Q8N448 (assay: holdup assay). Settings: plain residues with an end cap or a label only (N-terminal biotin on a linker: ado-ado).
Set-up: key: below the threshold = too weak to quantify, mostly under pKd 3.1 to 4

Binder	pKd
B1	below the threshold
B2	below the threshold

The binders below were run against T12, HTRA4, P83105 (assay: holdup assay). Settings: plain residues with an end cap or a label only (N-terminal biotin on a linker: ado-ado).
Set-up: key: below the threshold = too weak to quantify, mostly under pKd 3.1 to 4

Binder	pKd
B1	below the threshold
B2	4.6
